Laboratory results published in the supplement of paper PMC9112550, “Optimization of the antimicrobial peptide Bac7 by deep mutational scanning” (BMC Biology, 2022).

Tested on: Escherichia coli TOP10
Test: shrunken log2 fold change of peptide-encoding DNA abundance (4.5 h post-induction vs induction); higher = less antimicrobial activity (less host growth inhibition)
Details: time post-induction: 4.5 h; library: site-saturation at positions 5, 18, 19, 20
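Further: peptides expressed intracellularly from a pBAD plasmid library in pooled LB shake-flask culture, induced with 0.3% L-arabinose, DNA abundance read by NGS, three biological replicates, DESeq2 with apeglm shrinkage.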

Row | Sequence | shrunken log2 fold change
1 | RRIRTRPPRLPRPRPRPIPAPRP | 0.0613
2 | RRIRYRPPRLPRPRPRPAQTPRP | 0.0654
3 | RRIRFRPPRLPRPRPRPCMWPRP | -0.258
4 | RRIRLRPPRLPRPRPRPTKDPRP | -0.183
5 | RRIRRRPPRLPRPRPRPRPQPRP | 0.541
6 | RRIRFRPPRLPRPRPRPHGKPRP | -0.0579
7 | RRIRQRPPRLPRPRPRPPCNPRP | -0.115
8 | RRIRYRPPRLPRPRPRPRNYPRP | -1.26
9 | RRIRGRPPRLPRPRPRPPFFPRP | 0.851
10 | RRIRQRPPRLPRPRPRPMKAPRP | 0.181
11 | RRIRQRPPRLPRPRPRPHCLPRP | 0.0735
12 | RRIRMRPPRLPRPRPRPNVFPRP | 0.136
13 | RRIRFRPPRLPRPRPRPNQDPRP | -0.361
14 | RRIRSRPPRLPRPRPRPQLCPRP | 0.0696
15 | RRIRTRPPRLPRPRPRPHHDPRP | -0.469
16 | RRIRFRPPRLPRPRPRPHWWPRP | 0.154
17 | RRIRPRPPRLPRPRPRPQYIPRP | -0.457
18 | RRIRVRPPRLPRPRPRPTSKPRP | -0.144
19 | RRIRKRPPRLPRPRPRPDASPRP | 0.187
20 | RRIRARPPRLPRPRPRPIYCPRP | 0.241
21 | RRIRIRPPRLPRPRPRPLHEPRP | -0.191
22 | RRIRNRPPRLPRPRPRPFKEPRP | -0.161
23 | RRIRIRPPRLPRPRPRPHDRPRP | -0.289
24 | RRIRKRPPRLPRPRPRPMCWPRP | 0.0564
25 | RRIRPRPPRLPRPRPRPEDVPRP | -0.0168

Row | Sequence | shrunken log2 fold change
26 | RRIRFRPPRLPRPRPRPMSDPRP | -0.103
27 | RRIRARPPRLPRPRPRPHNVPRP | -0.0333
28 | RRIRKRPPRLPRPRPRPWGEPRP | 0.539
29 | RRIRKRPPRLPRPRPRPFQAPRP | 0.0945
30 | RRIRIRPPRLPRPRPRPLIVPRP | -0.622
31 | RRIRRRPPRLPRPRPRPAGRPRP | 0.41
32 | RRIRIRPPRLPRPRPRPATDPRP | -0.161
33 | RRIRKRPPRLPRPRPRPYFFPRP | 0.168
34 | RRIRERPPRLPRPRPRPSSHPRP | -0.0471
35 | RRIRYRPPRLPRPRPRPFWEPRP | 0.13
36 | RRIRSRPPRLPRPRPRPDEDPRP | -0.00181
37 | RRIRMRPPRLPRPRPRPVMTPRP | 0.148
38 | RRIRLRPPRLPRPRPRPYKWPRP | -0.0271
39 | RRIRGRPPRLPRPRPRPYHQPRP | -0.101
40 | RRIRKRPPRLPRPRPRPEMYPRP | 0.214
41 | RRIRSRPPRLPRPRPRPDPWPRP | 0.0152
42 | RRIRVRPPRLPRPRPRPLYAPRP | -0.154
43 | RRIRGRPPRLPRPRPRPQKGPRP | 0.0565
44 | RRIRPRPPRLPRPRPRPPMLPRP | 0.18
45 | RRIRYRPPRLPRPRPRPLPDPRP | -0.108
46 | RRIRQRPPRLPRPRPRPTFLPRP | -0.358
47 | RRIRARPPRLPRPRPRPTWTPRP | 0.425
48 | RRIRYRPPRLPRPRPRPAKGPRP | -0.183
49 | RRIRQRPPRLPRPRPRPHTLPRP | -0.263
50 | RRIRIRPPRLPRPRPRPVNQPRP | 0.0745

Row | Sequence | shrunken log2 fold change
51 | RRIRVRPPRLPRPRPRPMIAPRP | 0.261
52 | RRIRMRPPRLPRPRPRPCQMPRP | 0.00911
53 | RRIRARPPRLPRPRPRPTHRPRP | 0.46
54 | RRIRVRPPRLPRPRPRPEYYPRP | 0.0358
55 | RRIRRRPPRLPRPRPRPAVEPRP | -0.0125
56 | RRIRKRPPRLPRPRPRPAITPRP | 0.613
57 | RRIRARPPRLPRPRPRPQHLPRP | -0.0998
58 | RRIRCRPPRLPRPRPRPVHIPRP | -0.831
59 | RRIRFRPPRLPRPRPRPRQQPRP | 0.0599
60 | RRIRHRPPRLPRPRPRPAPLPRP | 0.16
61 | RRIRLRPPRLPRPRPRPEIHPRP | -0.269
62 | RRIRQRPPRLPRPRPRPLQGPRP | 0.0512
63 | RRIRKRPPRLPRPRPRPMHSPRP | -0.0199
64 | RRIRKRPPRLPRPRPRPWVAPRP | 0.282
65 | RRIRQRPPRLPRPRPRPLKTPRP | 0.0342
66 | RRIRMRPPRLPRPRPRPFVKPRP | -1.03
67 | RRIRNRPPRLPRPRPRPRGWPRP | 0.962
68 | RRIRKRPPRLPRPRPRPPIVPRP | -0.121
69 | RRIRCRPPRLPRPRPRPTVSPRP | 0.0953
70 | RRIRDRPPRLPRPRPRPSSKPRP | -0.0562
71 | RRIRPRPPRLPRPRPRPAIIPRP | -0.112
72 | RRIRYRPPRLPRPRPRPFEFPRP | -0.153
73 | RRIRNRPPRLPRPRPRPEPVPRP | -0.0258
74 | RRIRHRPPRLPRPRPRPFPQPRP | 3.88
75 | RRIRMRPPRLPRPRPRPDAEPRP | 4.37

Row | Sequence | shrunken log2 fold change
76 | RRIRMRPPRLPRPRPRPTFTPRP | 0.141
77 | RRIRQRPPRLPRPRPRPMYAPRP | 0.151
78 | RRIRPRPPRLPRPRPRPIDDPRP | 0.00554
79 | RRIRARPPRLPRPRPRPWEEPRP | 0.271
80 | RRIRKRPPRLPRPRPRPEGSPRP | 0.102
81 | RRIRPRPPRLPRPRPRPKFWPRP | 0.414
82 | RRIRVRPPRLPRPRPRPQTYPRP | -0.647
83 | RRIRNRPPRLPRPRPRPMPSPRP | 0.0832
84 | RRIRTRPPRLPRPRPRPFNAPRP | -0.344
85 | RRIRDRPPRLPRPRPRPFAGPRP | 0.0426
86 | RRIRRRPPRLPRPRPRPGIEPRP | -0.0777
87 | RRIRDRPPRLPRPRPRPFISPRP | -0.0503
88 | RRIRTRPPRLPRPRPRPTGPPRP | 0.48
89 | RRIRMRPPRLPRPRPRPCNMPRP | -0.126
90 | RRIRCRPPRLPRPRPRPHLVPRP | 0.565
91 | RRIRVRPPRLPRPRPRPQKAPRP | -0.0576
92 | RRIRMRPPRLPRPRPRPMLNPRP | -0.0171
93 | RRIRLRPPRLPRPRPRPLMWPRP | 0.115
94 | RRIRARPPRLPRPRPRPGDNPRP | 0.133
95 | RRIRDRPPRLPRPRPRPTHCPRP | 0.0452
96 | RRIRIRPPRLPRPRPRPEDRPRP | -0.0106
97 | RRIRARPPRLPRPRPRPSQYPRP | -0.00629
98 | RRIRARPPRLPRPRPRPDQEPRP | 0.0233
99 | RRIRGRPPRLPRPRPRPSYLPRP | -0.479
100 | RRIRNRPPRLPRPRPRPQFNPRP | -0.0424

Row | Sequence | shrunken log2 fold change
101 | RRIRTRPPRLPRPRPRPLASPRP | 0.125
102 | RRIRERPPRLPRPRPRPTQAPRP | -0.0212
103 | RRIRYRPPRLPRPRPRPLTCPRP | -0.566
104 | RRIRIRPPRLPRPRPRPETHPRP | -0.413
105 | RRIRWRPPRLPRPRPRPIFQPRP | -0.103
106 | RRIRKRPPRLPRPRPRPVGKPRP | -0.163
107 | RRIRCRPPRLPRPRPRPMRHPRP | -0.0878
108 | RRIRNRPPRLPRPRPRPYYRPRP | 0.0545
109 | RRIRYRPPRLPRPRPRPKVYPRP | -1.13
110 | RRIRNRPPRLPRPRPRPTPLPRP | 0.268
111 | RRIRRRPPRLPRPRPRPPCLPRP | 0.426
112 | RRIRQRPPRLPRPRPRPGKHPRP | 0.0941
113 | RRIRKRPPRLPRPRPRPLADPRP | 0.559
114 | RRIRFRPPRLPRPRPRPELTPRP | 0.136
115 | RRIRFRPPRLPRPRPRPKHCPRP | -0.0918
116 | RRIRVRPPRLPRPRPRPGEKPRP | -0.186
117 | RRIRTRPPRLPRPRPRPKMPPRP | 0.158
118 | RRIRGRPPRLPRPRPRPLTNPRP | 0.364
119 | RRIRDRPPRLPRPRPRPQWGPRP | -0.0612
120 | RRIRERPPRLPRPRPRPFESPRP | 0.00731
121 | RRIRARPPRLPRPRPRPSQNPRP | -0.25
122 | RRIRGRPPRLPRPRPRPSCGPRP | 0.451
123 | RRIRARPPRLPRPRPRPWRRPRP | 0.267
124 | RRIRKRPPRLPRPRPRPYLEPRP | 0.0252
125 | RRIRQRPPRLPRPRPRPKRLPRP | 0.281
